The chains are these.
T1: human TL1A (human, UniProt O95150 72-251, limits assumed)
T1 construct: also called tumor necrosis factor-like cytokine 1A; TNFSF15
T1 sequence (looked up): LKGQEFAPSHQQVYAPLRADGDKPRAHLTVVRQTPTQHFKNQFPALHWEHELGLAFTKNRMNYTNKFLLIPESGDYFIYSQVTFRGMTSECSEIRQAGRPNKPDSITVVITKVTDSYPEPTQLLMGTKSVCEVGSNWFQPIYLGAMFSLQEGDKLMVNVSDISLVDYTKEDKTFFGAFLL

T2: human TL1A (Fitzgerald #30R-AT070) (human, UniProt O95150 72-251, limits assumed)
T2 construct: Coated on the ELISA plate at 1 ug/mL; also called TNFSF15
T2 sequence (looked up): T1 sequence (looked up)

B1: A221 (antibody, IgG1, V domains shown)
VH: QVQLVQSGAEVKKPGASVKVSCKASGFDIQDTYMHWVKQRPGQGLEWMGRIDPASGHTKYDPKFQVRATITRDTSTSTAYLELSSLRSEDTAVYYCARSGGLPDVWGQGTTVTVSS
VL: EIVLTQSPGTLSLSPGERATLSCRASSSVSYMYWYQQKPGQAPRPLIYATSNLASGIPDRFSGSGSGTDFTLTISRLEPEDFAVYYCQQWEGNPRTFGGGTKLEIK
B2: A157 (antibody, IgG1, V domains shown)
VH: B1 VH with A68V, A79V
VL: B1 VL with P45L, E91K
B3: A163 (antibody, IgG1, V domains shown)
VH: B1 VH with K38R, A68V, R72T, L81M
VL: B1 VL with P45L, E91K
B4: A161 (antibody, IgG1, V domains shown)
VH: B1 VH with K38R, A68V, R72T, A79V
VL: B1 VL with P45L, E91K
B5: A159 (antibody, IgG1, V domains shown)
VH: B1 VH with A68V, L81M
VL: B1 VL with P45L, E91K
B6: A178 (antibody, IgG1, V domains shown)
VH: B1 VH with K38R, R40A, T58I, V66G, I70M, A79V, L81M, V105W
VL: B1 VL
B7: A177 (antibody, IgG1, V domains shown)
VH: B1 VH with K38R, R40A, T58I, V66G, R72T, A79V, L81M, V105W
VL: B1 VL
B8: A160 (antibody, IgG1, V domains shown)
VH: B1 VH with A68V, I70M
VL: B1 VL with P45L, E91K
B9: A168 (antibody, IgG1, V domains shown)
VH: B1 VH with M48I, I70M
VL: B1 VL with L46W
B10: A171 (antibody, IgG1, V domains shown)
VH: B1 VH with K38R, R40A, T58I, V66G, R72T, A79V, L81M, V105W
VL: B1 VL with L46W
B11: A169 (antibody, IgG1, V domains shown)
VH: B1 VH with R40A, T58I, V66G, A68V, I70M, A79V, L81M, V105W
VL: B1 VL with L46W
B12: A162 (antibody, IgG1, V domains shown)
VH: B1 VH with K38R, A68V, R72T, A79V, L81M
VL: B1 VL with P45L, E91K
B13: A172 (antibody, IgG1, V domains shown)
VH: B1 VH with K38R, R40A, T58I, V66G, I70M, A79V, L81M, V105W
VL: B1 VL with L46W
B14: A156 (antibody, IgG1, V domains shown)
VH: B1 VH with K38R, R40A, D52E, T58I, I70M, A79V, L81M, V105W
VL: B1 VL with L46W
B15: A174 (antibody, IgG1, V domains shown)
VH: B1 VH with K38R, R40A, D52E, T58I, V66G, I70M, L81M, V105W
VL: B1 VL with L46W
B16: A166 (antibody, IgG1, V domains shown)
VH: B1 VH with M48I, A68V, I70M, R72T
VL: B1 VL with L46W
B17: A165 (antibody, IgG1, V domains shown)
VH: B1 VH with K38R, R40A, M48I, R72T
VL: B1 VL with L46W
B18: A170 (antibody, IgG1, V domains shown)
VH: B1 VH with K38R, R40A, T58I, V66G, A68V, I70M, L81M, V105W
VL: B1 VL with L46W
B19: A167 (antibody, IgG1, V domains shown)
VH: B1 VH with M48I, A68V
VL: B1 VL with L46W
B20: A173 (antibody, IgG1, V domains shown)
VH: B1 VH with R40A, D52E, T58I, V66G, I70M, A79V, L81M, V105W
VL: B1 VL with L46W
B21: A164 (antibody, IgG1, V domains shown)
VH: B1 VH with K38R, A68V, I70M, R72T
VL: B1 VL with P45L, E91K
B22: A158 (antibody, IgG1, V domains shown)
VH: B1 VH with A68V, A79V, L81M
VL: B1 VL with P45L, E91K
B23: A179 (antibody, IgG1, V domains shown)
VH: B1 VH with R40A, D52E, T58I, V66G, I70M, A79V, L81M, V105W
VL: B1 VL
B24: A176 (antibody, IgG1, V domains shown)
VH: B1 VH with K38R, R40A, T58I, V66G, A68V, I70M, L81M, V105W
VL: B1 VL
B25: A175 (antibody, IgG1, V domains shown)
VH: B1 VH with R40A, T58I, V66G, A68V, I70M, A79V, L81M, V105W
VL: B1 VL
B26: A53 (antibody, human IgG1, V domains shown)
VH: B1 VH with M48I, A68V, I70M, R72T
VL: B1 VL with L13A, L21M, L46W, I57V, F70Y, L77V, E91S
notes: human IgG1/kappa (pFuse vectors), culture supernatant
B27: A56 (antibody, human IgG1, V domains shown)
VH: B1 VH with M48I, R72T
VL: B1 VL with L13A, L21M, L46W, F70Y, L77V, E91S
notes: as for B26
B28: A51 (antibody, human IgG1, V domains shown)
VH: B1 VH with M48I, R72T
VL: B1 VL with L13A, L21M, L46W, I57V, F70Y, E91S
notes: as for B26
B29: A47 (antibody, human IgG1, V domains shown)
VH: B1 VH with M48I, A68V, I70M
VL: B1 VL with L13A, L21M, L46W, I57V, F70Y, L77V, E91S
notes: as for B26
B30: A42 (antibody, human IgG1, V domains shown)
VH: B1 VH with M48I, I70M, R72T
VL: B1 VL with L13A, L21M, L46W, I57V, F70Y, L77V, E91S
notes: as for B26
B31: A55 (antibody, human IgG1, V domains shown)
VH: B1 VH with Q1E, M48I, R72T
VL: B1 VL with L13A, L21M, L46W, I57V, F70Y, L77V, E91S
notes: as for B26
B32: A43 (antibody, human IgG1, V domains shown)
VH: B1 VH with M48I
VL: B1 VL with L13A, L21M, L46W, I57V, F70Y, L77V, E91S
notes: as for B26
B33: A45 (antibody, human IgG1, V domains shown)
VH: B1 VH with M48I, A68V
VL: B1 VL with L13A, L21M, L46W, I57V, F70Y, L77V, E91S
notes: as for B26
B34: A54 (antibody, human IgG1, V domains shown)
VH: B1 VH with Q1D, M48I, R72T
VL: B1 VL with L13A, L21M, L46W, I57V, F70Y, L77V, E91S
notes: as for B26
B35: A38 (antibody, human IgG1, V domains shown)
VH: B1 VH with M48I, R72T, A79V
VL: B1 VL with L13A, L21M, L46W, I57V, F70Y, L77V, E91S
notes: as for B26
B36: A48 (antibody, human IgG1, V domains shown)
VH: B1 VH with M48I, R72T
VL: B1 VL with L13A, L46W, I57V, F70Y, L77V, E91S
notes: as for B26
B37: A41 (antibody, human IgG1, V domains shown)
VH: B1 VH with M48I, A68V, R72T
VL: B1 VL with L13A, L21M, L46W, I57V, F70Y, L77V, E91S
notes: as for B26
B38: A52 (antibody, human IgG1, V domains shown)
VH: B1 VH with M48I, R72T
VL: B1 VL with L13A, L21M, L46W, I57V, E91S
notes: as for B26
B39: A40 (antibody, human IgG1, V domains shown)
VH: B1 VH with M48I, R72T, A79V, L81M
VL: B1 VL with L13A, L21M, L46W, I57V, F70Y, L77V, E91S
notes: as for B26
B40: A39 (antibody, human IgG1, V domains shown)
VH: B1 VH with M48I, R72T, L81M
VL: B1 VL with L13A, L21M, L46W, I57V, F70Y, L77V, E91S
notes: as for B26
B41: A46 (antibody, human IgG1, V domains shown)
VH: B1 VH with M48I, I70M
VL: B1 VL with L13A, L21M, L46W, I57V, F70Y, L77V, E91S
notes: as for B26
B42: A49 (antibody, human IgG1, V domains shown)
VH: B1 VH with M48I, R72T
VL: B1 VL with L13A, L21M, P45L, I57V, F70Y, L77V, E91S
notes: as for B26
B43: A50 (antibody, human IgG1, V domains shown)
VH: B1 VH with M48I, R72T
VL: B1 VL with L13A, L21M, L46W, I57V, L77V, E91S
notes: as for B26

We go through 43 molecules from patent publication US20260216326A1 (PROMETHEUS BIOSCIENCES, published 2026).

Changes are numbered by the printed parent chain.

The target of one assay is T1, human TL1A. As to the kind of experiment: ELISA titration on plate-coated human TL1A, unpurified culture supernatant.
In the case of B1, binding was put at a Kd of 51 pM. On the same count and under the same terms, the value for B2 was 69 pM; that for B3 was 51 pM; that for B4 was 72 pM. Same read-out and setting: the value for B5 was 69 pM. Same read-out and setting: the value for B6 was 43 pM. Take B7: the dissociation constant (Kd) was found to be 52 pM.

In the case of B8, the Kd stood at 94 pM. On the same count and under the same terms, the value for B9 was 62 pM. Still for that read-out and setting: the value for B10 was 50 pM. B11 gave a Kd of 47 pM.

For the molecule B12, binding was put at a Kd of 75 pM. Same read-out and setting: the value for B13 was 40 pM. On the same count and under the same terms, the value for B14 was 94 pM; that for B15 was 43 pM; that for B16 was 57 pM. Still for that read-out and setting: the value for B17 was 59 pM; that for B18 was 49 pM; that for B19 was 42 pM. For the molecule B20, binding was characterised by a dissociation constant (Kd) of 40 pM.

Molecule B21 registered a Kd of 58 pM. Still for that read-out and setting: the value for B22 was 66 pM; that for B23 was 79 pM. On the same count and under the same terms, the value for B24 was 48 pM. Still for that read-out and setting: the value for B25 was 45 pM.

The target of a further assay is T2, human TL1A (Fitzgerald #30R-AT070). The experiment in a line: ELISA titration, coated human TL1A, culture supernatant.
For the molecule B26, the Kd is 126 pM. The molecule B27 displayed a Kd of 116 pM. B28: the Kd was < 50 pM. Still for that read-out and setting: the value for B29 was 82 pM; that for B30 was < 50 pM; that for B31 was 91 pM. Still for that read-out and setting: the value for B32 was 51 pM; that for B33 was 85 pM.

With B34, the Kd was 83 pM. Still for that read-out and setting: the value for B35 was 103 pM. The same measure, in the same setting: the value for B36 was 76 pM; that for B37 was 16 pM. The molecule B38 returned a Kd of 27 pM. For B39, the Kd was < 50 pM. On the same count and under the same terms, the value for B40 was 125 pM. Same read-out and setting: the value for B41 was 63 pM; that for B42 was 92 pM; that for B43 was 19 pM.
